Patent US20100160262

Target: enzymatically [3H] acetylated histone H3 peptide (amino acids 1-24), P68431

B1: human SIRT1 with a C-terminal FLAG tag (protein)
chain: MADEAALALQPGGSPSAAGADREAASSPAGEPLRKRPRRDGPGLERSPGEPGGAAPEREVPAAARGCPGAAAAALWREAEAEAAAAGGEQEAQATAAAGEGDNGPGLQGPSREPPLADNLYDEDDDDEGEEEEEAAAAAIGYRDNLLFGDEIITNGFHSCESDEEDRASHASSSDWTPRPRIGPYTFVQQHLMIGTDPRTILKDLLPETIPPPELDDMTLWQIVINILSEPPKRKKRKDINTIEDAVKLLQECKKIIVLTGAGVSVSCGIPDFRSRDGIYARLAVDFPDLPDPQAMFDIEYFRKDPRPFFKFAKEIYPGQFQPSLCHKFIALSDKEGKLLRNYTQNIDTLEQVAGIQRIIQCHGSFATASCLICKYKVDCEAVRGDIFNQVVPRCPRCPADEPLAIMKPEIVFFGENLPEQFHRAMKYDKDEVDLLIVIGSSLKVRPVALIPSSIPHEVPQILINREPLPHLHFDVELLGDCDVIINELCHRLGGEYAKLCCNPVKLSEITEKPPRTQKELAYLSELPPTPLHVSEDSSSPERTSPPDSSVIVTLLDQAAKSNDDLDVSESKGCMEEKPQEVQTSRNVESIAEQMENPDLKNVGSSTGEKNERTSVAGTVRKCWPNRVAKEQISRRLDGNQYLFLPPNRYIFHGAEVYSDSEDDVLSSSSCGSNSDSGTCQSPSLEEPMEDESEIEEFYNGLEDEPDVPERAGGAGFGTDGDDQEAINEAISVKQEVTDMNYPSNKS
standard histone deacetylase assay (radioactive, H3 peptide substrate): These enzymes also deacetylate histones as determined in a standard histone deacetylase assay
